Test results reported in FireProtDB (doi:10.1093/protein/gzw068).

B1: A200Y, Q93D82 (parent)
chain: MSTAIVTNVKHFGGMGSALRLSEAGHTVACHDESFKQKDELEAFAETYPQLKPMSEQEPAELIEAVTSAYGQVDVLVSNDIFAPEFQPIDKYAVEDYRGAVEALQIRPFALVNAVASQMKKRKSGHIIFITSATPFGPWKELSTYTSARAGACTLANALSKELGEYNIPVFAIGPNYLHSEDSPYFYPTEPWKTNPEHVAHVKKVTALQRLGTQKELGELVAFLASGSCDYLTGQVFWLAGGFPMIERWPGMPE

Variants of: B1
Settings: Rhizobium radiobacter; pH 7.7; Thermal; CD; Phosphate 5mM; structure 1PWX; whole UniProt chain shown

Row | Variant | Tm [°C] | change of melting temperature, mutant - wild type (higher = more stable) [°C]
1 | A200Y | 62.5 | -2.5
2 | A69M | 62.5 | -2.5
3 | A69R | 65.5 | 0.5
4 | A69K | 63.5 | -1.5
5 | A69L | 64.5 | -0.5
6 | A69H | 64.5 | -0.5
7 | K161F | 64 | -1
8 | G99D | 65 | 0
9 | G99H | 65 | 0
10 | E58N | 65 | 0
11 | V77I | 64 | -1
12 | F82W | 59 | -6
13 | P253G | 64.5 | -0.5
14 | T144I | 57 | -8
15 | D182F | 63 | -2
16 | N157F | 64 | -1
17 | S55P | 65 | 0
18 | L111W | 57 | -8
19 | H198Y | 62.5 | -2.5
20 | H198M | 55 | -10
21 | A60K | 61 | -4
22 | A60L | 63 | -2
23 | A60R | 66.5 | 1.5

Row | Variant | Tm [°C] | change of melting temperature, mutant - wild type (higher = more stable) [°C]
24 | A60Y | 64.5 | -0.5
25 | T154V | 62 | -3
26 | T154I | 62 | -3
27 | T154L | 58.5 | -6.5
28 | N113Q | 61.5 | -3.5
29 | E197K | 67.5 | 2.5
30 | T7F | 65 | 0
31 | S228K | 64.5 | -0.5
32 | T47H | 63.5 | -1.5
33 | T47A | 63 | -2
34 | T47K | 66 | 1
35 | V75I | 65 | 0
36 | R98I | 64.5 | -0.5
37 | R98L | 65 | 0
38 | Q37D | 65 | 0
39 | Q209H | 58 | -7
40 | F136W | 60.5 | -4.5
41 | E64A | 66 | 1
42 | E64Q | 66 | 1
43 | E64K | 65 | 0
44 | E165P | 57.5 | -7.5
45 | S68K | 65 | 0
46 | S68N | 65.5 | 0.5

Row | Variant | Tm [°C] | change of melting temperature, mutant - wild type (higher = more stable) [°C]
47 | S68R | 66.5 | 1.5
48 | T134V | 68 | 3
49 | T134W | 64 | -1
50 | T27L | 65 | 0
51 | T27V | 64.5 | -0.5
52 | T27M | 65 | 0
53 | T194Q | 61 | -4
54 | K140S | 62.5 | -2.5
55 | K140P | 54.5 | -10.5
56 | A103Q | 61 | -4
57 | A103Y | 60.5 | -4.5
58 | C153L | 63 | -2
59 | C153H | 53.5 | -11.5
60 | C153I | 60 | -5
61 | C153V | 50.5 | -14.5
62 | C153N | 78.5 | 13.5
63 | A29L | 68 | 3
64 | E247Y | 63 | -2
65 | E247P | 66 | 1
66 | D39K | 66.5 | 1.5
67 | D39E | 65 | 0
68 | R107Q | 65 | 0
69 | A83M | 65.5 | 0.5

Row | Variant | Tm [°C] | change of melting temperature, mutant - wild type (higher = more stable) [°C]
70 | A83Q | 65.5 | 0.5
71 | E61R | 64.5 | -0.5
72 | E61Q | 66.5 | 1.5
73 | S117K | 65 | 0
74 | H126Y | 63.5 | -1.5
75 | H126V | 64.5 | -0.5
76 | A93K | 70.5 | 5.5
77 | A93N | 69 | 4
78 | A93T | 69.5 | 4.5
79 | E42M | 66.5 | 1.5
80 | F86W | 64.5 | -0.5
81 | A45K | 65.5 | 0.5
82 | A158V | 71 | 6
83 | T213N | 61.5 | -3.5
84 | T213D | 62 | -3
85 | P244A | 67 | 2
86 | V205L | 63.5 | -1.5
87 | E219N | 63.5 | -1.5
88 | Q87R | 68.5 | 3.5
89 | D80E | 60 | -5
90 | N195H | 64.5 | -0.5
91 | E190L | 65.5 | 0.5
92 | S22A | 64.5 | -0.5
